To fix the notation:
B1: N-TIMP2 WT (N-terminal domain of Tissue Inhibitor of Metalloproteinases 2, residues 1-127) (domain or fragment, human, UniProt P16035 27-153, looked up)
chain: CSCSPVHPQQAFCNADVVIRAKAVSEKEVDSGNDIYGNPIKRIQYEIKQIKMFKGPEKDIEFIYTAPSSAVCGVSLDVGGKKEYLIAGKAEGDGKMHITLCDFIVPWDTLSTTQKKSLNHRYQMGCE
notes: Monomeric fraction used; also called WT N-TIMP2
B2: N-TIMP2 S4Q (domain or fragment, human, UniProt P16035 27-153, looked up)
chain: B1 chain with S4Q
notes: TIMP2, human, N-terminal domain, residues 1-127; also called S04Q
B3: N-TIMP2 V6R (domain or fragment, human, UniProt P16035 27-153, looked up)
chain: B1 chain with V6R
notes: TIMP2, human, N-terminal domain, residues 1-127; also called V06R
B4: N-TIMP2 T99Y (domain or fragment, human, UniProt P16035 27-153, looked up)
chain: B1 chain with T99Y
notes: TIMP2, human, N-terminal domain, residues 1-127
B5: N-TIMP2 H97R (domain or fragment, human, UniProt P16035 27-153, looked up)
chain: B1 chain with H97R
notes: as for B4
B6: N-TIMP2 S4E (domain or fragment, human, UniProt P16035 27-153, looked up)
chain: B1 chain with S4E
notes: TIMP2, human, N-terminal domain, residues 1-127; also called S04E
B7: N-TIMP2 N38Q (domain or fragment, human, UniProt P16035 27-153, looked up)
chain: B1 chain with N38Q
notes: as for B4
B8: N-TIMP2 V71N (domain or fragment, human, UniProt P16035 27-153, looked up)
chain: B1 chain with V71N
notes: as for B4
B9: N-TIMP2 I35K (domain or fragment, human, UniProt P16035 27-153, looked up)
chain: B1 chain with I35K
notes: as for B4
B10: N-TIMP2 I35E (domain or fragment, human, UniProt P16035 27-153, looked up)
chain: B1 chain with I35E
notes: as for B4
B11: N-TIMP2 S68W (domain or fragment, human, UniProt P16035 27-153, looked up)
chain: B1 chain with S68W
notes: as for B4
B12: N-TIMP2 S4A (domain or fragment, human, UniProt P16035 27-153, looked up)
chain: B1 chain with S4A
notes: as for B4
B13: N-TIMP2 S68Y (domain or fragment, human, UniProt P16035 27-153, looked up)
chain: B1 chain with S68Y
notes: as for B4
B14: N-TIMP2 S4R (domain or fragment, human, UniProt P16035 27-153, looked up)
chain: B1 chain with S4R
notes: TIMP2, human, N-terminal domain, residues 1-127; also called S04R

Residue numbers refer to the chain shown, from its start. Names may count otherwise.

In one assay the target is T1, MMP9 catalytic domain (UniProt P14780 107-444).
T1 construct: Matrix Metalloproteinase 9 (MMP9), catalytic domain; source: expressed recombinantly and purified as published before [12]
T1 sequence (P14780 107-444): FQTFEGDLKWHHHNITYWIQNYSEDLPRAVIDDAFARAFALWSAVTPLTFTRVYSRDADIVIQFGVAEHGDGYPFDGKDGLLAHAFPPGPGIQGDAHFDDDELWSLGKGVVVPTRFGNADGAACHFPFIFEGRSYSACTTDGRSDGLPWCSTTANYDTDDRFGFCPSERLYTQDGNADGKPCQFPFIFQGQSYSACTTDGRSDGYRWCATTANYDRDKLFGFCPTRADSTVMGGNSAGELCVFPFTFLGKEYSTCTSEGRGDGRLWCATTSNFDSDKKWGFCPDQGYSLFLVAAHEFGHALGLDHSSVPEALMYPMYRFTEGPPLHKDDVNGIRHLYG
Kind of assay: enzyme activity (inhibition) assay with a fluorogenic substrate; various concentrations of N-TIMP2 pre-incubated 1 hour with MMP9 (0.2 nM) or MMP14 (0.5 nM) in 50 mM Tris-HCl, 0.15 M NaCl, 10 mM CaCl2, 0.02% Brij 35, pH 7.5, 37°C; fraction of enzyme activity fitted to a 1:1 binding model to give Kd. The following applies: both partners purified.
For B1, the equilibrium dissociation constant (Kd) stood at 0.9 nM. In other words, the sub-nanomolar range.

With B2, the affinity, expressed as Kd, was 1.39 nM.

B3 displayed a Kd of 0.5 nM. Compared with the last molecule, the Kd is about 2.8-fold lower.

On to B4, for which the equilibrium dissociation constant (Kd) was 1.1 nM.

As to B5, binding was put at a Kd of 0.5 nM. Against the preceding molecule, the Kd is about 2.2-fold lower.

In turn, B6 came in with a Kd of 15.5 nM.

The molecule B7 yielded a Kd of 2.4 nM.

For the molecule B8, the equilibrium dissociation constant (Kd) was 4.68 nM. This Kd lies about 1.9-fold higher than the previous one.

In turn, B9 gave a Kd of 0.58 nM. This Kd is about 8.1-fold lower than that of the molecule before.

The molecule B10 gave a Kd of 2.5 nM. Against the preceding molecule, the Kd is about 4.3-fold higher.

B11 gave a Kd of 0.37 nM.

The molecule B12 gave a dissociation constant (Kd) of 0.85 nM.

Molecule B13 had a dissociation constant (Kd) of 0.8 nM.

The molecule B14 had a Kd of 0.55 nM.

A further assay addresses T2, MMP14 catalytic domain (UniProt P50281 112-285).
T2 construct: Matrix Metalloproteinase 14 (MMP14), catalytic domain; source: expressed recombinantly and purified as published before [12]
The assay is described as above. Particulars: both partners purified.
As to B1, the affinity, expressed as Kd, was 4.5 nM. This lies in the single-digit nanomolar range.

B2: the Kd came to 1.9 nM.

B3 returned a Kd of 1.3 nM.

Molecule B4 had a dissociation constant (Kd) of 1.05 nM.

As to B5, the dissociation constant (Kd) was determined as 0.32 nM.

The molecule B6 registered a dissociation constant (Kd) of 9.5 nM. This Kd lies about 30-fold higher than the previous one.

B7 had a Kd of 3.4 nM.

The molecule B8 showed a Kd of 6.5 nM.

Molecule B9 gave a Kd of 0.38 nM.

B10: the Kd turned out to be 5.4 nM. Compared with the last molecule, the Kd is about 14-fold higher.

For B11, binding was put at a Kd of 0.91 nM.

For B12, the Kd came out at 1.4 nM.

The molecule B13 yielded a Kd of 1.1 nM.

In the case of B14, the Kd came to 2.7 nM.

(Values after publication PMC3977929, “Affinity- and Specificity-Enhancing Mutations Are Frequent in Multispecific Interactions between TIMP2 and MMPs” (PLoS ONE, 2014).)
